Broadly, the EC50 is the concentration at which the effect is half-maximal.

Results on 7 molecules are retold here after patent US20180319855A1, “GENETICALLY MUTATED AEQUORIN-BASED BIOSENSORS WITH EXTRA SENSITIVITY TO CALCIUM AND IMPROVED BIOLUMINESCENCE INTENSITY” (CENTRE NATIONAL DE LA RECHERCHE SCIENTIFIQUE (CNRS), priority 2015, published 2018).

Like-named read-outs stand apart in the source and are kept apart here.

The nature of data set [1]: Ca2+ sensitivity curves of reconstituted photoproteins (L/Lmax vs free Ca2+). It counts as biochemical. The settings on record: for EC50: read-out: Calcium sensitivity, EC50. The procedure: For in vitro reconstitution, the purified and concentrated samples of apoaequorin and redquorin mutant proteins were buffer-exchanged to 50 mM Tris-HCl (pH 7.5), 150 mM NaCl, 10 mM EGTA, 5 mM ß-mercaptoethanol, supplemented with 5 μM CLZ-f or CLZ-native and incubated overnight at 4° C., in the dark. The next day, samples were passed through molecular weight cut-offs (AmiconUitra MWCO, 10K and 50K, from Millipore), then resuspended in Zero-Ca^2+ buffer (30 mM MOPS, 100 mM KCl and 10 mM EGTA, pH 7.2) for calcium affinity, emission decay kinetics and spectral analysis assays. As for in cellulo reconstitution, HEK cells transiently expressing the proteins of apoaequorin and aporedquorin mutants were washed twice with Hank's Balanced Salt Solution (HBSS) and incubated in the dark, with 4 μM of the desired CLZ diluted in OptiMEM I medium (Gibco), for 2-3h at 37° C. and 5% CO2. Cells were washed once and maintained in HBSS at 37° C. for 20 min before the experiment.
Functional Analysis of Aequorin Mutants and Fusions Ca^2+ Sensitivity Curves.
Purified and reconstituted samples with CLZ-f or CLZ-native already buffered-exchanged to zero-calcium buffer ensured to minimize calcium contamination that could interfere with the measurements. Fifteen microliter aliquot of photoprotein samples (concentration range, 50 to 90 ng/μl) was placed in a home-made luminometer and mixed with 300 μl solution containing the desired concentration of free-Ca^2+. The solutions of EGTA-buffered with varying free-Ca^2+ prepared according to the manufacturer instruction for the kit (Molecular Probes, Invitrogen). Integration of the luminescence emission (per second) was measured for 20 seconds (background) before injecting a solution with known [free-Ca^2+] and lasted until stable or decaying signal (at final-phase) was obtained. At this point, 400 μl of a saturating calcium solution (30 mM MOPS, 100 mM CaCl2, pH 7.2) was rapidly injected (less than 30 ms) and light integration continued until all aequorin had been consumed and light intensity had gone back to background signal. Luminescence intensity (L) at different [Ca^2+] was taken as the response peak value in case of decaying signal or as the stable value in case of stable emission. Lmax, was measured by integrating all remaining luminescence signal from that moment (L value) to the end of the experiment. The EC50 values were extracted from a sigmoidal dose-response fit (variable slope) using GraphPad Prism software.

The nature of data set [2]: Thermostability: relative bioluminescence activity after 30 min incubation. It counts as physicochemical. The settings on record: for Thermostability, luminescence activity relative to wt-aequorin: CLZ-f; for less activity compared to wt-aeq (thermostability): after incubation at 30 and 40° C. The protocol:
Thermostability of aequorin and redquorin mutant with increased affinity for calcium were compared to wt-aequorin (FIG. 5). The purified photoprotein samples were reconstituted with CLZ-f (as detailed earlier) and let to calibrate at room temperature (20-24° C.) for 20 min before taken the first measurement of total counts using saturating calcium solution (50 mM Tris-HCl, 100 mM CaCl2, pH 7.5). Samples were then incubated at two different temperatures (30 to 40° C.) for 30 min, and let equilibrate at room temperature for 15 minbefore taken the second measurement of total counts in the sample. The relative bioluminescence activity at each temperature was calculated by the ratio 2nd counts (at target T° C.)/1st counts (at initial T° C.) multiplied by 100.
Table 6 highlights the analysis of thermostability data obtained at two temperatures for aequorin and redquorin mutants, as well as CitA and GA. The values represent the degree of change in luminescence activity compared to wt-aeq, at each temperature. All values are relative to wt-aequorin (at each temperature) and were calculated by dividing the obtained data for each mutant/variant by the data for wt-aeq (as reference). The data were taken from FIG. 5.

Where [3] appears, read: CLZ-f, L/Lmax compared to Aeq-wt.
[4] abbreviates: aequorin proteins reconstituted with CLZ-f, sigmoidal curve fit, mean ± SD, n at least 3.

B1: S157D: apoaequorin mutant, serine 157 replaced by aspartic acid (SEQ ID NO:12) (protein)
chain: SKLTSDFDNPRWIGRHKHMFNFLDVNHNGKISLDEMVYKASDIVINNLGATPEQAKRHKDAVEAFFGGAGMKYGVETDWPAYIEGWKKLATDELEKYAKNEPTLIRIWGDALFDIVDKDQNGAITLDEWKAYTKAAGIIQSSEDCEETFRVCDIDEDGQLDVDEMTRQHLGFWYTMDPACEKLYGGAVP
modifications: mutant aequorin
On to B1, for which, in data set [1] (setting [3]), the “Relative intensity at pCa 6.5” value is given as 6.0 and the “Relative intensity at pCa 7.2” value is 2.2. Also, the EC50 in data set [1] (setting [4]) is 322 nM. Also, the “Thermostability, luminescence activity relative to wt-aequorin” value in data set [2] (30° C. for 30 min) amounted to 0.77. The “Thermostability, luminescence activity relative to wt-aequorin” value in data set [2] (40° C. for 30 min) was 0.71. The “less activity compared to wt-aeq (thermostability)” value (“less activity compared to wt-aeq” for short) in data set [2] was “up to 29%”.

B2: Q159G: apoaequorin mutant, glutamine 159 replaced by glycine (SEQ ID NO:7) (protein)
chain: SKLTSDFDNPRWIGRHKHMFNFLDVNHNGKISLDEMVYKASDIVINNLGATPEQAKRHKDAVEAFFGGAGMKYGVETDWPAYIEGWKKLATDELEKYAKNEPTLIRIWGDALFDIVDKDQNGAITLDEWKAYTKAAGIIQSSEDCEETFRVCDIDESGGLDVDEMTRQHLGFWYTMDPACEKLYGGAVP
modifications: mutant aequorin
For the molecule B2, in data set [1] (setting [3]), the “Relative intensity at pCa 6.5” value was 3.3 and the “Relative intensity at pCa 7.2” value was 3.2. In data set [1] (setting [4]), the EC50 was 492 ± 10 nM. Also, the “Thermostability, luminescence activity relative to wt-aequorin” value in data set [2] (30° C. for 30 min) is listed as 0.96. Further, the “Thermostability, luminescence activity relative to wt-aequorin” value in data set [2] (40° C. for 30 min) amounted to 0.92.

B3: QD + AT: apoaequorin double mutant Q159D + A179T (SEQ ID NO:17) (protein)
chain: SKLTSDFDNPRWIGRHKHMFNFLDVNHNGKISLDEMVYKASDIVINNLGATPEQAKRHKDAVEAFFGGAGMKYGVETDWPAYIEGWKKLATDELEKYAKNEPTLIRIWGDALFDIVDKDQNGAITLDEWKAYTKAAGIIQSSEDCEETFRVCDIDESGDLDVDEMTRQHLGFWYTMDPTCEKLYGGAVP
modifications: mutant aequorin
Take B3: in data set [1] (setting [3]), the “Relative intensity at pCa 6.5” value came out at 58.5 and the “Relative intensity at pCa 7.2” value turned out to be 60.8. Moreover, the EC50 in data set [1] (setting [4]) was 216 nM. In data set [2] (30° C. for 30 min), the “Thermostability, luminescence activity relative to wt-aequorin” value stood at 1.05. The “Thermostability, luminescence activity relative to wt-aequorin” value in data set [2] (40° C. for 30 min) is reported as 1.07.

B4: QD + AD: apoaequorin double mutant Q159D + A123D (SEQ ID NO:15) (protein)
chain: SKLTSDFDNPRWIGRHKHMFNFLDVNHNGKISLDEMVYKASDIVINNLGATPEQAKRHKDAVEAFFGGAGMKYGVETDWPAYIEGWKKLATDELEKYAKNEPTLIRIWGDALFDIVDKDQNGDITLDEWKAYTKAAGIIQSSEDCEETFRVCDIDESGDLDVDEMTRQHLGFWYTMDPACEKLYGGAVP
modifications: mutant aequorin
On to B4, for which, in data set [1] (setting [3]), the “Relative intensity at pCa 6.5” value amounted to 26.2 and the “Relative intensity at pCa 7.2” value was 15.0. In addition, the EC50 in data set [1] (setting [4]) is 271 ± 15 nM. The “Thermostability, luminescence activity relative to wt-aequorin” value in data set [2] (30° C. for 30 min) is 0.97. The “Thermostability, luminescence activity relative to wt-aequorin” value in data set [2] (40° C. for 30 min) stood at 0.94.

B5: QD + ND: apoaequorin double mutant Q159D + N121D (SEQ ID NO:13) (protein)
chain: SKLTSDFDNPRWIGRHKHMFNFLDVNHNGKISLDEMVYKASDIVINNLGATPEQAKRHKDAVEAFFGGAGMKYGVETDWPAYIEGWKKLATDELEKYAKNEPTLIRIWGDALFDIVDKDQDGAITLDEWKAYTKAAGIIQSSEDCEETFRVCDIDESGDLDVDEMTRQHLGFWYTMDPACEKLYGGAVP
modifications: mutant aequorin
For B5, in data set [1] (setting [3]), the “Relative intensity at pCa 6.5” value is listed as 29.0 and the “Relative intensity at pCa 7.2” value was found to be 41.7. In addition, the EC50 in data set [1] (setting [4]) is 295 ± 17 nM. Besides, in data set [2] (30° C. for 30 min), the “Thermostability, luminescence activity relative to wt-aequorin” value is listed as 0.81. Moreover, in data set [2] (40° C. for 30 min), the “Thermostability, luminescence activity relative to wt-aequorin” value is on record as 0.81. The “less activity compared to wt-aeq” value in data set [2] is listed as 20%.

B6: N121D: apoaequorin mutant, asparagine 121 replaced by aspartic acid (SEQ ID NO:9) (protein)
chain: SKLTSDFDNPRWIGRHKHMFNFLDVNHNGKISLDEMVYKASDIVINNLGATPEQAKRHKDAVEAFFGGAGMKYGVETDWPAYIEGWKKLATDELEKYAKNEPTLIRIWGDALFDIVDKDQDGAITLDEWKAYTKAAGIIQSSEDCEETFRVCDIDESGQLDVDEMTRQHLGFWYTMDPACEKLYGGAVP
modifications: mutant aequorin
B6: in data set [1] (setting [3]), the “Relative intensity at pCa 6.5” value was determined as 4.9 and the “Relative intensity at pCa 7.2” value was 2.1. Moreover, in data set [1] (setting [4]), the EC50 stood at 400 ± 14 nM. The “Thermostability, luminescence activity relative to wt-aequorin” value in data set [2] (30° C. for 30 min) is 0.81. Further, the “Thermostability, luminescence activity relative to wt-aequorin” value in data set [2] (40° C. for 30 min) is listed as 0.82. Moreover, the “less activity compared to wt-aeq” value in data set [2] is recorded as 19%.

B7: Redq/QT + AT: aporedquorin mutant Q159T + A179T (SEQ ID NO:24) (protein)
chain: MVSKGEEVIKEFMRFKVRMEGSMNGHEFEIEGEGEGRPYEGTQTAKLKVTKGGPLPFAWDILSPQFMYGSKAYVKHPADIPDYKKLSFPEGFKWERVMNFEDGGLVTVTQDSSLQDGTLIYKVKMRGTNFPPDGPVMQKKTMGWEASTERLYPRDGVLKGEIHQALKLKDGGHYLVEFKTIYMAKKPVQLPGYYYVDTKLDITSHNEDYTIVEQYERSEGRHHLFLGHGTGSTGSGSSGTASSEDNNMAVIKEFMRFKVRMEGSMNGHEFEIEGEGEGRPYEGTQTAKLKVTKGGPLPFAWDILSPQFMYGSKAYVKHPADIPDYKKLSFPEGFKWERVMNFEDGGLVTVTQDSSLQDGTLIYKVKMRGTNFPPDGPVMQKKTMGWEASTERLYPRDGVLKGEIHQALKLKDGGHYLVEFKTIYMAKKPVQLPGYYYVDTKLDITSHNEDYTIVEQYERSEGRHHLFLSGFDNPRWIGRHKHMFNFLDVNHNGKISLDEMVYKASDIVINNLGATPEQAKRHKDAVEAFFGGAGMKYGVETDWPAYIEGWKKLATDELEKYAKNEPTLIRIWGDALFDIVDKDQNGAITLDEWKAYTKAAGIIQSSEDCEETFRVCDIDESGTLDVDEMTRQHLGFWYTMDPTCEKLYGGAVP
modifications: mutant aequorin
B7: the EC50 was determined as 284 ± 30 nM in data set [1] (CLZ-f, redquorin series, CitA, GA) and 605 ± 16 nM in data set [1] (CLZ-native, redquorin series, CitA, GA). For the same molecule, the “Relative intensity at pCa 6.5” value in data set [1] (CLZ-f, relative to Redq) is 25.6; in data set [1] (CLZ-native, relative to Redq), 18.3. The “Relative intensity at pCa 7.2” value in data set [1] (CLZ-f, relative to Redq) stood at 9.0; in data set [1] (CLZ-native, relative to Redq) it was 14.1. Moreover, the “Thermostability, luminescence activity relative to wt-aequorin” value in data set [2] (30° C. for 30 min) is on record as 0.96; in data set [2] (40° C. for 30 min), 1.03.
